This note sets out measurements from PMC3392941 (The Journal of Cell Biology, 2012).

The target of the experiment is T1, Recombinant Myo2 CBD, Myo2(1,131–1,574) (S. cerevisiae, UniProt P19524 1131-1574).
T1 sequence: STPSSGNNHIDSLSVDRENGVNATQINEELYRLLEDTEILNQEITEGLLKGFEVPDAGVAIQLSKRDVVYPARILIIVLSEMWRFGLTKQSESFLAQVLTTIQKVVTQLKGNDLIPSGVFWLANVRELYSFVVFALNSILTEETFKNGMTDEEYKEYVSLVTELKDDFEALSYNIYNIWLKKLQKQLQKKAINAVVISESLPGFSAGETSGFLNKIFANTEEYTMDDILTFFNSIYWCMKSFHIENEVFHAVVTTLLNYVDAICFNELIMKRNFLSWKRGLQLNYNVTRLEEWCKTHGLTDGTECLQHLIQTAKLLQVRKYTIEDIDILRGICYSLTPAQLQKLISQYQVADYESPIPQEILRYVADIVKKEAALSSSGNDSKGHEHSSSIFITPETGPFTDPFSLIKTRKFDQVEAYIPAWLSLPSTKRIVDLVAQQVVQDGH
Put plainly: SEC.

B1: MBP-Vac17(112–157) (domain or fragment)
chain: PNEAPNDSPQSQSTRSSLGSFQPRPLKIIERQRLCMVTPSKPPKKS
B1: the binding result is “binds”.
